Measured values published in US11278600B2, “Human alpha-galactosidase variants” (Codexis, Inc., priority 2014, dated 2022).

Columns and labels:
Type in all cases: biochemical
[1] = HTP-analysis of yeast culture supernatants, no challenge (MUGal hydrolysis); conditions: activity of the variant/activity of Rd3BB (SEQ ID NO: 13), yeast supernatant
How it was run: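 GLA variants expressed in yeast INVSc1, secreted into SD-Ura broth over 66-84 h at 30° C; clarified supernatants tested without challenge. Supernatant mixed with McIlvaine buffer pH 4.8 and 2 mM MUGal (citrate/KCl, pH 4.6), 37° C for 30-180 min, carbonate-quenched, fluorescence Ex 355/Em 448 nm.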

[2] = HTP-analysis of supernatants pretreated with acid (MUGal hydrolysis); conditions: challenge at pH 3.3; activity of the variant/activity of Rd3BB (SEQ ID NO: 13); yeast supernatant
How it was run: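 Supernatants from INVSc1 yeast secreting GLA variants were challenged at 37° C. for 1-3 h in McIlvaine buffer at pH 3.3-4.3. Residual activity was then measured on 4 mM MUGal substrate stock at pH 4.8 with citrate buffer pH 4.3, over 30-180 min at 37° C. Reactions were quenched with sodium carbonate and read by fluorescence (Ex 355/Em 448 nm).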

[3] = HTP-analysis of supernatants pretreated with base (MUGal hydrolysis); conditions: challenge at pH 9.7; activity of the variant/activity of Rd3BB (SEQ ID NO: 13); yeast supernatant
How it was run: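 Fluorescence of released 4-MU (Ex 355 nm, Em 448 nm) after carbonate quench reports MUGal hydrolysis by GLA variants secreted from INVSc1 yeast. Before the acidic (pH 4.3-4.8) 30-180 min reaction at 37° C, supernatants had been pre-incubated at pH 7.0-9.7 for 1-18 h at 37° C.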

Molecule | Relative Activity of GLA Variants After No Challenge (NC) [1] | Relative Activity of GLA Variants After Challenge at pH 3.3 [2] | Relative Activity of GLA Variants After Challenge at pH 9.7 [3]
616 (protein, Synthetic Polypeptide sequence of Variant No. 616 of mature Human GLA) LDNGLARTPTMGWLHWERFMCNLDCQEEPDSCISEKLFMEMAERMVTEGWKDAGYEYLCIDDCWMAPQRDSEGRLQADPQRFPHGIRQLANHVHSKGLKLGIYADVGNKTCAGFPGSFGYYDIDAQTFADWGVDLLKFDGCYCDSLENLADGYKHMSLALNRTGRPIVYSCEWPLYMWPFQKPNYTEIRQYCNHWRNFADIDDSWASIKSILDWTSRNQERIVDVAGPGGWNDPDMLVIGNFGLSWDQQVTQMALWAIWAAPLFMSNDLRAISPQAKALLQDKDVIAINQDPLGKQGYQLRKGDNFEVWERPLSGDAWAVAIINRQEIGGPRSYTIPVASLGKGVACNPACFITQLLPVKRQLGFYNWTSRLKSHINPTGTVLLQLENTQQMSLKDLL | + (+ = 1.5 to 5 relative activity over Rd3BB (SEQ ID NO: 13)) | + (+ = 1.5 to 5 relative activity over Rd3BB (SEQ ID NO: 13)) | ++ (++ = >5 to 10 relative activity over Rd3BB (SEQ ID NO: 13))
617 (protein, Synthetic Polypeptide sequence of Variant No. 617 of mature Human GLA) LDNGLARTPTMGWLHWERFMCNLDCQEEPDSCISEKLFMEMAERMVSEGWKDAGYEYLCIDDCWMAPQRDSEGRLQADPQRFPHGIRQLANHVHSKGLKLGIYADVGNKTCAGFPGSFGYYDIDAQTFADWGVDLVKFDGCYCDSLENLADGYKHMSLALNRTGRPIVYSCEWPLYMWPFQKPNYTEIRQYCNHWRNFADIDDSWASIKSILDWTSRNQERIVDVAGPGGWNDPDMLVIGNFGLSWDQQVTQMALWAIAAAPLFMSNDLRHISPQAKALLQDKDVIAINQDPLGKQGYQLRKGDNFEVWERPLSGDAWAVAIINRQEIGGPRSYTIPVASLGKGVACNPACFITQLLPVKRQLGFYNWTSRLKSHINPTGTVLLQLENTQQMSLKDLL | + (+ = 1.5 to 5 relative activity over Rd3BB (SEQ ID NO: 13)) | ++ (++ = >5 to 10 relative activity over Rd3BB (SEQ ID NO: 13)) | ++ (++ = >5 to 10 relative activity over Rd3BB (SEQ ID NO: 13))
618 (protein, Synthetic Polypeptide sequence of Variant No. 618 of mature Human GLA) LDNGLARTPTMGWLHWERFMCNLDCQEEPDSCISEKLFMEMAERMVTEGWKDAGYEYLCIDDCWMAPQRDSEGRLQADPQRFPHGIRQLANHVHSKGLKLGIYADVGNKTCAGFPGSFGYYDIDAQTFADWGVDLLKFDGCYCDSLENLADGYKHMSLALNRTGRPIVYSCEWPLYMWPFQKPNYTEIRQYCNHWRNFADIDDSWASIKSILDWTSRNQERIVDVAGPGGWNDPDMLVIGNFGLSWDQQVTQMALWAIMAAPLFMSNDLRAISPQAKALLQDKDVIAINQDPLGKQGYQLRKGDNFEVWERPLSGDAWAVAIINRQEIGGPRSYTIPVASLGKGVACNPACFITQLLPVKRQLGFYNWTSRLKSHINPTGTVLLQLENTMQMSLKDLL | + (+ = 1.5 to 5 relative activity over Rd3BB (SEQ ID NO: 13)) | ++ (++ = >5 to 10 relative activity over Rd3BB (SEQ ID NO: 13)) | ++ (++ = >5 to 10 relative activity over Rd3BB (SEQ ID NO: 13))
619 (protein, Synthetic Polypeptide sequence of Variant No. 619 of mature Human GLA) LDNGLARTPTMGWLHWERFMCNLDCQEEPDSCISEKLFMEMAERMVTEGWKDAGYEYLCIDDCWMAPQRDSEGRLQADPQRFPHGIRQLANHVHSKGLKLGIYADVGNKTCAGFPGSFGYYDIDAQTFADWGVDLLKFDGCYCDSLENLADGYKHMSLALNRTGRPIVYSCEWPLYMWPFQKPNYTEIRQYCNHWRNFADIDDSWASIKSILDWTSRNQERIVDVAGPGGWNDPDMLVIGNFGLSWDQQVTQMALWAIMAAPLFMSNDLRAISPQAKALLQDKDVIAINQDPLGKQGYQLRKGDNFEVWERPLSGDAWAVAIINRQEIGGPRSYTIPVASLGKGVACNPACFITQLLPVKRQLGFYNWTSRLKSHINPTGTVLLQLENTHQMSLKDLL | + (+ = 1.5 to 5 relative activity over Rd3BB (SEQ ID NO: 13)) | ++ (++ = >5 to 10 relative activity over Rd3BB (SEQ ID NO: 13)) | ++ (++ = >5 to 10 relative activity over Rd3BB (SEQ ID NO: 13))
620 (protein, Synthetic Polypeptide sequence of Variant No. 620 of mature Human GLA) LDNGLARTPTMGWLHWERFMCNLDCQEEPDSCISEKLFMEMAERMVTEGWKDAGYEYLCIDDCWMAPQRDSEGRLQADPQRFPHGIRQLANHVHSKGLKLGIYADVGNKTCAGFPGSFGYYDIDAQTFADWGVDLLKFDGCYCDSLENLADGYKHMSLALNRTGRPIVYSCEWPLYMWPFQKPNYTEIRQYCNHWRNFADIDDSWASIKSILDWTSRNQERIVDVAGPGGWNDPDMLVIGNFGLSWDQQVTQMALWAIMAAPLFMSNDLRAISPQAKALLQDKDVIAINQDPLGKQGYQLRKGDNFEVWERPLSGDAWAVAIINRQEIGGPRSYTIPVASLGKGVACNPACFITQLLPVKRQLGFYNWTSRLKSHINPTGTVLLQLENTQQMSLKDLL | − (− = <1.5 relative activity to Rd3BB (SEQ ID NO: 13)) | + (+ = 1.5 to 5 relative activity over Rd3BB (SEQ ID NO: 13)) | ++ (++ = >5 to 10 relative activity over Rd3BB (SEQ ID NO: 13))
621 (protein, Synthetic Polypeptide sequence of Variant No. 621 of mature Human GLA) LDNGLARTPTMGWLHWERFMCNLDCQEEPDSCISEKLFMEMAERMVTEGWKDAGYEYLCIDDCWMAPQRDSEGRLQADPQRFPHGIRQLANHVHSKGLKLGIYADVGNKTCAGFPGSFGYYDIDAQTFADWGVDLLKFDGCYCDSLENLADGYKHMSLALNRTGRPIVYSCEWPLYMWPFQKPNYTEIRQYCNHWRNFADIDDSWASIKSILDWTSRNQERIVDVAGPGGWNDPDMLVIGNFGLSWDQQVTQMALWAIEAAPLFMSNDLRAISPQAKALLQDKDVIAINQDPLGKQGYQLRKGDNFEVWERPLSGDAWAVAIINRQEIGGPRSYTIPVASLGKGVACNPACFITQLLPVKRQLGFYNWTSRLKSHINPTGTVLLQLENTQQMSLKDLL | + (+ = 1.5 to 5 relative activity over Rd3BB (SEQ ID NO: 13)) | ++ (++ = >5 to 10 relative activity over Rd3BB (SEQ ID NO: 13)) | − (− = <1.5 relative activity to Rd3BB (SEQ ID NO: 13))
622 (protein, Synthetic Polypeptide sequence of Variant No. 622 of mature Human GLA) LDNGLARTPTMGWLHWERFMCNLDCQEEPDSCISEKLFMEMAERMVNEGWKDAGYEYLCIDDCWMAPQRDSEGRLQADPQRFPHGIRQLANHVHSKGLKLGIYADVGNKTCAGFPGSFGYYDIDAQTFADWGVDLLKFDGCYCDSLENLADGYKHMSLALNRTGRPIVYSCEWPLYMWPFQKPNYTEIRQYCNHWRNFADIDDSWASIKSILDWTSRNQERIVDVAGPGGWNDPDMLVIGNFGLSWDQQVTQMALWAIWAAPLFMSNDLRAISPQAKALLQDKDVIAINQDPLGKQGYQLRKGDNFEVWERPLSGDAWAVAIINRQEIGGPRSYTIPVASLGKGVACNPACFITQLLPVKRQLGFYNWTSRLKSHINPTGTVLLQLENTQQTSLKDLL | + (+ = 1.5 to 5 relative activity over Rd3BB (SEQ ID NO: 13)) | − (− = <1.5 relative activity to Rd3BB (SEQ ID NO: 13)) | ++ (++ = >5 to 10 relative activity over Rd3BB (SEQ ID NO: 13))
623 (protein, Synthetic Polypeptide sequence of Variant No. 623 of mature Human GLA) LDNGLARTPTMGWLHWERFMCNLDCQEEPDSCISEKLFMEMAERMVNEGWKDAGYEYLCIDDCWMAPQRDSEGRLQADPQRFPHGIRQLANYVHSKGLKLGIYADVGNKTCAGFPGSFGYYDIDAQTFADWGVDLLKFDGCYCDSLENLADGYKHMSLALNRTGRPIVYSCEWPLYMWPFQKPNYTEIRQYCNHWRNFADIDDSWASIKSILDWTSRNQERIVDVAGPGGWNDPDMLVIGNFGLSWDQQVTQMALWAIMAAPLFMSNDLRAISPQSKALLQDKDVIAINQDPLGKQGYQLRKGDNFEVWERPLSGDAWAVAIINRQEIGGPRSYTIPVASLGKGVACNPACFITQLLPVKRQLGFYNWTSRLKSHINPTGTVLLQLENTMQTSLKDLL | + (+ = 1.5 to 5 relative activity over Rd3BB (SEQ ID NO: 13)) | +++ (+++ = >10 relative activity over Rd3BB (SEQ ID NO: 13)) | ++ (++ = >5 to 10 relative activity over Rd3BB (SEQ ID NO: 13))
